From patent publication EP0959899A1

Experiments:
[1] = target: human CD2 (CD2 antigen, entire CD2 molecule) (human) (UniProt P06729); experiment: flow cytometry, two colour staining of PBMC with biotinylated LO-CD2a and Leu-5bPE (Figure 1)
[2] = target: human CD2 (CD2 antigen, entire CD2 molecule) (human) (UniProt P06729); experiment: flow cytometry, two colour staining of human PBMC (data not shown)
[3] = target: human CD2 (CD2 antigen, entire CD2 molecule) (human) (UniProt P06729); experiment: flow cytometry on PBMC cultured with 500 ng/ml LO-CD2a, bound antibody detected with MARK-3-FITC (Figure 5a)

UniProt P06729, sequence (P06729 25-351): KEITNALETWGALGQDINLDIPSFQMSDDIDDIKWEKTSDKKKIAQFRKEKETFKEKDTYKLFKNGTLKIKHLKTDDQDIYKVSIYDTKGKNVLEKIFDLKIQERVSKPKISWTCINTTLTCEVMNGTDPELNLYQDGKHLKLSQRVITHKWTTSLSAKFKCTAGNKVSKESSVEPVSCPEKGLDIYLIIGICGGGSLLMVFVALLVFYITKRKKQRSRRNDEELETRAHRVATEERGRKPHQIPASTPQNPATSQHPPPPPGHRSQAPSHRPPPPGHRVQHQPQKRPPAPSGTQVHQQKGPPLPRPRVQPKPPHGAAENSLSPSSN

| Substance | % gated cells in the upper right (double positive) quadrant [1] [% gated] | % total cells in the upper right (double positive) quadrant [1] [% total] | percent of the population marked by T11 that is recognized [2] [%] | percent of cells labelled by MARK-3 (bound LO-CD2a) at day 6 of culture [3] [%] |
| --- | --- | --- | --- | --- |
| LO-CD2a rat (IgG2b-Kappa) anti-CD2 monoclonal antibody, produced by the cell line ATCC HB 11423 | 66 | 17 | 90 | 50 |
| Leu-5b, mouse anti-human-CD2 monoclonal antibody (Becton Dickinson) | 66 | 17 |  |  |
